According to patent publication US20230124669A1:

Key:
[1] = biological target: neonatal Fc receptor FcRn; test: FcRn binding of bispecific antibody at acidic pH; method not stated
[2] = biological target: neonatal Fc receptor FcRn; test: FcRn binding of bispecific antibody; method not stated

FcRn binding at acidic pH/nM [1]: 53.7 nM
pH dependent FcRn binding/% [2]: 0%
B1: TY21489 (bispecific antibody, part only; not given: rest of both heavy chains, lights, not shown: a dimerising Fc or GST)
heavy, part 1: GQPREPQVYTLPPSRKKLTKNQVKLTCLVKGFYPSDIAVEWESNGQPENNYKTTPPVLDCDGSFFLYSKLTVDKSRWQQGNVFSCSVMHEALHNHYTQKSLSLSPGK
heavy, part 2: GQPREPQVYTDPPSRDELTKNQVSLTCLVDGFYPSDIAVEWESNGQPENCYKTTPPVLDSDGSFFLYSKLTVDKSRWQQGNVFSCSVMHEALHNHYTQDSLSLSPGK
